Laboratory results from PMC10979056 (Heliyon, 2024).

Experiments:
[1] = biological target: human TIM-3-His (human, UniProt Q8TDQ0); assay: ELISA
[2] = biological target: cynomolgus TIM-3-hFc (Macaca fascicularis, UniProt A0A2K5U3G7); assay: BLI

Row | sensitivity (lowest detectable concentration of coated TIM-3-His) [1] [ng/mL] | Kd [2] [nM] | Binder
1 | 1 | – | MsT001 (antibody, V domains shown) VH: EVQLQQSGAEVVMPGASVKMSCKTSGYTFTDYLIHWVKQRPGQGLVWIGAIDTSDSYASYNQKFKGKATLTLDESSRTAYMQLSSLTSEDSAVYFCTGEGLDYWGQGTSVTVSS VL: DIQMTQTPLSLPVSLGDQASISCRSSQSLVHSNGNTYLNWYLQKPGQSPKLLIYKVSYRFSGVPDRFSGSGSGTDFTLKISRVEAEDLGVYFCSQSTHVPPLTFGAGTKLELK
2 | 10 | 0.0179 | MsT229 (antibody, V domains shown) VH: EIQLVQSGPELVKPGASMKMSCKASGYSFTGYTMNWVKQSHGQNLEWIGLINPQTGGTSYNQNFRGKATLTVDKSSNTAYMELLSLTSEDSAVYYCARERGFDSPGFPYWGQGTLVTVSA VL: DIQMTQTTSSLSASLGDRVTISCRASQDISNYLNWYQQKPDGTVKLLIYYTSRLHSGVPSRFSGSGSGTDYSLTISNLEQEDIATYFCQQGNTLPLTFGAGTKLELK
3 | 1 | – | MsT229-Bio (antibody, V domains shown) VH: EIQLVQSGPELVKPGASMKMSCKASGYSFTGYTMNWVKQSHGQNLEWIGLINPQTGGTSYNQNFRGKATLTVDKSSNTAYMELLSLTSEDSAVYYCARERGFDSPGFPYWGQGTLVTVSA VL: DIQMTQTTSSLSASLGDRVTISCRASQDISNYLNWYQQKPDGTVKLLIYYTSRLHSGVPSRFSGSGSGTDYSLTISNLEQEDIATYFCQQGNTLPLTFGAGTKLELK
4 | 1 | 0.914 | MsT286 (antibody, V domains shown) VH: QVQLQQSGPELVKPGASMKMSCKASGYSFTGYTMNWVKQSHGQNLEWIGLINPQTGGTSYNQNFRGKATLTVDKSSNTAYMELLSLTSEDSAVYYCARERGFDSPGFPYWGQGTLVTVSA VL: not shown
